Test results from the supplement of paper PMC11136658.

System: peptide library, one residue held at a place counted from the Y acceptor
Experiment: relative phosphorylation of the sub-library (ratio to the mean residue at this position); higher = residue favoured
Method in brief: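 Every value reflects phosphorylation relative to the mean randomized residue. The sum of the 18 randomized residues, or 16 in the Ser/Thr-free library, served to normalize intensities at each position, which were then multiplied by that number. Intensities came from phosphorimaging with ImageQuant of biotinylated Tyr-centred peptides captured on streptavidin membranes after 90 min with purified recombinant kinases and 50 μM ATP plus γ-32P-ATP.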

Sequence of EPHA6, construct: aa683-end, human (Q9UF33 683-1036, looked up): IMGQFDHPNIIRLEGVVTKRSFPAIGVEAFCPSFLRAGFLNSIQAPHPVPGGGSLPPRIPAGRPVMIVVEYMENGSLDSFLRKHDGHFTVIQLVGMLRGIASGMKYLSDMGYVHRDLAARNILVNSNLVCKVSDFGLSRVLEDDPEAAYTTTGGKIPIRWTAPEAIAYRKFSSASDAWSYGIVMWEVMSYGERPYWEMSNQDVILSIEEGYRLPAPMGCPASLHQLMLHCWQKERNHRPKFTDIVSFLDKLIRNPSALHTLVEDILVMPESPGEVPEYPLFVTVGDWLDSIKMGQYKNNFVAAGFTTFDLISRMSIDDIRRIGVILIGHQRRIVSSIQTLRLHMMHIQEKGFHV

EPHA6, construct: aa683-end, human (from UniProt Q9UF33)
relative phosphorylation
Details	at +1	at +2	at +3	at +4	at +5	at -1	at -2	at -3	at -4	at -5
A fixed	1.7	0.891	0.971	1.03	0.87	0.838	1.39	0.94	1.57	1.47
D fixed	0.944	1.3	0.585	0.688	0.91	2.67	1.15	1.18	0.754	0.894
E fixed	2.3	1.3	0.541	0.818	0.966	1.73	1.22	1.36	1.03	0.788
F fixed	0.862	1.19	0.94	1.06	1.12	0.701	0.668	1.09	0.859	0.811
G fixed	0.699	0.438	0.61	1.12	0.966	0.427	0.758	0.853	1.27	1.22
H fixed	0.72	1.13	1.03	1.15	1.24	0.733	0.886	1.01	0.973	1.21
I fixed	1.02	0.984	1.93	1	0.811	1.92	0.966	1.5	1.3	0.707
K fixed	0.62	1.03	0.901	1.06	1.04	0.593	1.17	0.842	0.944	1.15
L fixed	0.792	0.964	1.56	0.86	0.92	1.29	1.07	0.873	0.847	0.703
M fixed	1.08	0.917	1.26	0.988	0.955	0.737	0.85	0.943	0.881	0.802
N fixed	0.649	1.04	0.522	0.74	0.947	1.61	0.922	0.818	0.754	0.982
P fixed	0.352	0.594	1.05	1.29	1.03	0.504	1.2	0.876	1.15	1.03
Q fixed	1.31	0.779	0.716	0.882	0.942	0.535	1.02	0.735	0.942	0.998
R fixed	0.916	1.3	1.06	1.27	1.09	0.63	1.3	1.01	1.05	1.45
S fixed	0.808	0.748	0.684	0.848	0.993	0.535	1.21	0.951	0.826	0.949
T fixed	0.678	0.703	0.673	0.794	0.979	0.798	0.84	0.893	0.755	0.91
V fixed	1.54	1.06	1.64	1.08	0.85	1.2	0.781	1.11	1.2	0.954
W fixed	1	1.64	1.32	1.32	1.36	0.528	0.605	1.01	0.894	0.981
pThr fixed	1.37	1.63	0.624	0.561	0.816	2.9	1.03	0.842	0.799	0.686
pTyr fixed	1.48	3.8	0.659	0.576	1.01	2.12	0.946	0.911	0.73	0.677
